# Where a chain is given by its changes, count along the chain named.
# T1: CD19 (human, UniProt P15391 20-556)
# T1 construct: whole, on cells; also called CD19 on NALM-6 cells
# T1 sequence (looked up): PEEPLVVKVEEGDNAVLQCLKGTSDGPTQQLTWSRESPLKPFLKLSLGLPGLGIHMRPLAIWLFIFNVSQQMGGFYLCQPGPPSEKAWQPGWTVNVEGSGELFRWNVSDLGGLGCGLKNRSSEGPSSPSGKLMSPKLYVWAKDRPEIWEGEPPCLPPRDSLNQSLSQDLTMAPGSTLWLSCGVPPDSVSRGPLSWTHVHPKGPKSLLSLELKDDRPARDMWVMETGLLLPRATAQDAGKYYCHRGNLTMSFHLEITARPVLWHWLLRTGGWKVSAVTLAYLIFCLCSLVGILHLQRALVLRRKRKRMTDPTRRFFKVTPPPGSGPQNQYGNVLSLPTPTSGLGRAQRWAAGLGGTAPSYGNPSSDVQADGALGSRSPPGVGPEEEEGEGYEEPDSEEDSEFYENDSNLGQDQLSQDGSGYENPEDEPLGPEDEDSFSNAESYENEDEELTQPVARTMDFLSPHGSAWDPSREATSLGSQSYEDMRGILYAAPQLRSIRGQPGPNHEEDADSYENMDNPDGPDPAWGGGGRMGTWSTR
# T2: Epithelial cell adhesion molecule (EpCAM) (human, UniProt P16422 24-314)
# T2 construct: whole, on cells; also called 17-1A antigen; KSA
# T2 sequence (looked up): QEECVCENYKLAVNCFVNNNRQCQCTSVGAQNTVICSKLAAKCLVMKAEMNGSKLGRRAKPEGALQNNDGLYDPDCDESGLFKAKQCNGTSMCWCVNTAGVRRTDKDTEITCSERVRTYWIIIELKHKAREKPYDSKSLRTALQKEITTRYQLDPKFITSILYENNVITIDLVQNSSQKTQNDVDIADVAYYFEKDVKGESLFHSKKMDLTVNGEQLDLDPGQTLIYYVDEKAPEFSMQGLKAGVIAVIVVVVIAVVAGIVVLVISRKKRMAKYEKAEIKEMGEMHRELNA
# B1: 5-10×anti-CD3 (VH5/VL2) (SEQ ID NO.:63) (bispecific antibody)
# chain: ELVMTQSPSSLTVTAGEKVTMSCKSSQSLLNSGNQKNYLTWYQQKPGQPPKLLIYWASTRESGVPDRFTGSGSGTDFTLTISSVQAEDLAVYYCQNDYSYPLTFGAGTKLEIKGGGGSGGGGSGGGGSEVQLLEQSGAELVRPGTSVKISCKASGYAFTNYWLGWVKQRPGHGLEWIGDIFPGSGNIHYNEKFKGKATLTADKSSSTAYMQLSSLTFEDSAVYFCARLRNWDEPMDYWGQGTTVTVSSGGGGSDVQLVQSGAEVKKPGASVKVSCKASGYTFTRYTMHWVRQAPGQGLEWIGYINPSRGYTNYADSVKGRFTITTDKSTSTAYMELSSLRSEDTATYYCARYYDDHYCLDYWGQGTTVTVSSGEGTSTGSGGSGGSGGADDIVLTQSPATLSLSPGERATLSCRASQSVSYMNWYQQKPGKAPKRWIYDTSKVASGVPARFSGSGSGTDYSLTINSLEAEDAATYYCQQWSSNPLTFGGGTKVEIK
# notes: Bispecific single chain with anti-EpCAM at the N-terminus; tested as CHO culture supernatant; detected by anti-His; also called pEF-DHFR-5-10×anti-CD3 (VH5/VL2); Nr.54
# B2: anti-CD19×anti-CD3 (VH7/VL2) (SEQ ID NO.:198) (bispecific antibody)
# chain: DIQLTQSPASLAVSLGQRATISCKASQSVDYDGDSYLNWYQQIPGQPPKLLIYDASNLVSGIPPRFSGSGSGTDFTLNIHPVEKVDAATYHCQQSTEDPWTFGGGTKLEIKGGGGSGGGGSGGGGSQVQLQQSGAELVRPGSSVKISCKASGYAFSSYWMNWVKQRPGQGLEWIGQIWPGDGDTNYNGKFKGKATLTADESSSTAYMQLSSLASEDSAVYFCARRETTTVGRYYYAMDYWGQGTTVTVSSGGGGSDVQLVQSGAEVKKPGASVKVSCKASGYTFTRYTMHWVRQAPGQGLEWIGYINPSRGYTNYNQKFKDRVTITTDKSTSTAYMELSSLRSEDTAVYYCARYYDDHYCLDYWGQGTTVTVSSGEGTSTGSGGSGGSGGADDIVLTQSPATLSLSPGERATLSCRASQSVSYMNWYQQKPGKAPKRWIYDTSKVASGVPARFSGSGSGTDYSLTINSLEAEDAATYYCQQWSSNPLTFGGGTKVEIK
# notes: As m4: bispecific single chain, His-tagged; all other places say VH7/VL2
# B3: anti-CD19×anti-CD3 (VH7/VL3) (SEQ ID NO.:200) (bispecific antibody)
# chain: B2 chain with S414T, Q419S
# notes: As m4: bispecific single chain, His-tagged; also called pEF anti-CD19×anti-CD3 (VH7/VL3); anti-CD3 (VH7/VK3)
# B4: anti-CD19×anti-CD3 (VH5/VL1) (SEQ ID NO.:190) (bispecific antibody)
# chain: DIQLTQSPASLAVSLGQRATISCKASQSVDYDGDSYLNWYQQIPGQPPKLLIYDASNLVSGIPPRFSGSGSGTDFTLNIHPVEKVDAATYHCQQSTEDPWTFGGGTKLEIKGGGGSGGGGSGGGGSQVQLQQSGAELVRPGSSVKISCKASGYAFSSYWMNWVKQRPGQGLEWIGQIWPGDGDTNYNGKFKGKATLTADESSSTAYMQLSSLASEDSAVYFCARRETTTVGRYYYAMDYWGQGTTVTVSSGGGGSDVQLVQSGAEVKKPGASVKVSCKASGYTFTRYTMHWVRQAPGQGLEWIGYINPSRGYTNYADSVKGRFTITTDKSTSTAYMELSSLRSEDTATYYCARYYDDHYCLDYWGQGTTVTVSSGEGTSTGSGGSGGSGGADDIQMTQSPSSLSASVGDRVTITCRASQSVSYMNWYQQKPGKAPKRWIYDTSKVASGVPARFSGSGSGTDYSLTINSLEAEDAATYYCQQWSSNPLTFGGGTKVEIK
# notes: As m4: bispecific single chain, His-tagged; also called pEF anti-CD19×anti-CD3 (VH5/VL1)
# B5: anti-CD19×anti-CD3 (VH7/VL1) (SEQ ID NO.:196) (bispecific antibody)
# chain: B4 chain with A316N, D317Q, S318K, V319F, G321D, F323V, T348V
# notes: As m4: bispecific single chain, His-tagged; also called pEF anti-CD19×anti-CD3 (VH7/VL1)
# Molecular target: T3, human CD3 (human, UniProt P07766 23-207; P04234 22-171; P09693 23-182)
# T3 construct: whole, on cells; also called CD3 antigen; human CD3 complex
# Assay: FACS, culture supernatant on Jurkat cells; anti-His detection
# Protocol: (§1) 250000 Jurkat cells (for CD3 binding) and Kato cells (for EpCAM binding) were independently incubated with cell culture supernatants (50 μl) containing the bispecific construct (pEF-DHFR-3-1×anti-CD3 (VH5/VL2) (Nr.50, SEQ ID NO.: 48) and pEF-DHFR-5-10×anti-CD3 (VH5/VL2) (Nr.54) (SEQ ID NO.:62), respectively) for 45 min. at 4° C. Thereafter, the cells were washed twice in FACS buffer (phosphate-buffered saline containing 1% fetal calf serum (FCS) and 0.05% sodium azide) and incubated with mouse anti-His antibody (Dianova, DIA910) for 60 min. at 4° C. Washing steps were performed as above.
# (§2) The cells were finally incubated either with goat anti-mouse Ig-FITC-conjugated antibody (BD 550003) or with anti-mouse IgG conjugated with PE (Sigma, P8547). After washing steps, 10000 events were analysed using FACS Calibur (B&D).
row,Binder,binding result
1,B1,binds

# Molecular target: T1, CD19
# Assay: FACS, purified constructs at 1 and 5 µg/ml on CD19-positive NALM cells
# Protocol: Binding was measured by a FACS-based assay using CD3 enriched PBMCs (A) or CD19-positive NALM-cells (B). A secondary antibody with CD3 positive cells was used as a negative control in (A) and a secondary antibody with CD19 positive cells was used as a negative control in (B). Constructs anti-CD19×anti-CD3 and anti-EpCAM (M79)×anti-CD3 were used as controls. Assay was carried out with concentrations of 1 μg/ml and 5 μg/ml. MFI indicates mean fluorescence intensity.
# (§3) In order to analyze the binding efficacy of the deimmunized constructs to CD3 and CD19 a FACS-based assay was performed. Initially, crude supernatants were tested for binding on CD3-enriched PBMCs or CD19-positive NALM-6 cells. Cells were incubated with non-diluted supernatants for 30 minutes at 8° C. Upon two wash steps the cells were labeled with an anti-His antibody (Qiagen) under the same conditions. After additional wash steps binding of the constructs was detected with a FITC-conjugated sheep anti-mouse antibody (Sigma). Cells were analyzed with a FACS Calibur cytometer (B&D). As controls supernatants of anti-CD19×anti-CD3 and GFP-transfected cells were included. […] The positive control, which was a non-deimmunized anti-CD19×anti-CD3 construct reached a MFI of around 60 showing that the deimmunized constructs comprising anti-CD3 (VH5/VL1) (SEQ ID NO.:190), anti-CD3 (VH5/VL2) (SEQ ID NO.:192), anti-CD3 (VH5/VL3) (SEQ ID NO.:194), anti-CD3 (VH7/VL1) (SEQ ID NO.:196), anti-CD3 (VH7/VL2) (SEQ ID NO.:198) and anti-CD3 (VH7/VL3) (SEQ ID NO.:200) bound CD3 with extremely high efficacy.
row,Binder,MFI [MFI]
1,B2,~200
2,B3,~200
3,B4,~200
4,B5,~200

# Molecular target: T3, human CD3
# Assay: FACS, purified construct at 0.5 µg/ml as printed, on CD3 positive cells
row,Binder,MFI [MFI]
1,B2,25
2,B3,≥ 40
3,B4,≥ 40
4,B5,≥ 40

# Molecular target: T1, CD19
# Assay: FACS, crude supernatant on CD19-positive NALM-6 cells; negative control MFI ca. 3
# Protocol: as §3
# The FACS-based binding assay was also carried out for CD19. In this experiment CD19 and a secondary antibody was as a negative control. In this experiment, all assayed constructs achieved a MFI of at least 80 while the MFI of the negative control was ca. 3.
row,Binder,MFI [MFI]
1,B2,≥ 80
2,B3,≥ 80
3,B4,≥ 80
4,B5,≥ 80

# Molecular target: T3, human CD3
# Assay: FACS, non-diluted crude supernatant on CD3-enriched PBMCs; anti-His + FITC anti-mouse
# Protocol: as §3
Binder,MFI [MFI],"fold over the negative control (secondary antibody only, MFI ca. 3.5) [fold]"
B2,≥ 90,~25
B3,≥ 90,~25
B4,≥ 90,~25
B5,≥ 90,~25

# Molecular target: T2, Epithelial cell adhesion molecule …
# Assay: FACS, culture supernatant on Kato cells (for EpCAM binding); anti-His detection
# Protocol: as §1, §2
row,Binder,binding result
1,B1,binds
